Test results reported in patent US20240263208A1, “CYTOCHROME P450 ENZYME” (HYPHA DISCOVERY LTD., priority 2021, published 2024).
Where a chain is given by its changes, count along the chain named. Numbers in names are those of the source.

Key:
Assay type in all cases: biochemical
[1] = Oxidase activity testing against efavirenz; details: substrate Efavirenz
How it was run: (§1)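 P450 + ferredoxin + ferredoxin reductase (reconstituted lyophilisate); 0.1 mg/ml substrate; 100 mM KPi pH 8.0, 5 mM MgCl2; 27° C, shaking, 16-20 h. NADPH regenerated via G6P/G6PDH/NADP+. Read-out: % conversion by UPLC-MS after acetonitrile extraction.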

[2] = Oxidase activity testing, lyophilised recombinant P450/ferredoxin SeuF08/ferredoxin reductase SCF15A against ambroxide; details: for +16 Da (1.50 min) 253 m/z / +16 Da (1.60 min) 253 m/z / +16 Da (2.04 min) 253 m/z: oxidised ambroxide product; for +16 Da (1.50 min) 253 m/z / +16 Da (1.60 min) 253 m/z / +16 Da (2.04 min) 253 m/z / Ambroxide (2.22 min) 237 m/z: relative MS peak area; for reaction products from ambroxide (in words): products at 1.50, 1.61 and 2.04 minutes; for Ambroxide (2.22 min) 237 m/z: remaining substrate, 0.1 mg/ml ambroxide, 27° C., 16-20 hours; for Average % conversion: substrate ambroxide, relative MS peak areas
Protocol: (§2) Lyophilised material of recombinant P450, ferredoxin and ferredoxin reductase proteins was made as described in Example 4 and reconstituted in high purity water to the original volume. Biocatalysis was performed with shaking incubation at 27° C. in the following conditions: 100 mM potassium phosphate pH 8.0, 5 mM MgCl2 (both present in the reconstituted enzyme preparation) and 0.1 mg/ml substrate compound such as ambroxide (Sigma-Aldrich, UK), carbamazepine (Sigma-Aldrich, UK), diclofenac (Sigma-Aldrich, UK), tivantinib (MedChemtronica, Sweden), clarithromycin (Tokyo Chemical Industry, Japan), sclareol (Sigma-Aldrich, UK), celecoxib (LC Laboratories, USA), buparvaquone (Sigma-Aldrich, UK), BIRB796 (MedChemExpress, USA), vanoxerine (CiVentiChem, USA), valsartan (Tokyo Chemical Industry, Japan), ruxolitinib (LC Laboratories, USA), perindopril (Selleckchem, USA), solifenacin (Key Organics, UK), 7-ethoxycoumarin (Tokyo Chemical Industry, Japan), tofacitinib (LC Laboratories, USA), ebastine (Key Organics, UK), efavirenz (Key Organics, UK), propanalol (Sigma-Aldrich, UK) and tolbutamide (Key Organics, UK).
(§3) Concentrations of P450, ferredoxin and ferredoxin reductase were as extracted (Example 4). Reactions were initiated by addition of 10× stock of cofactor mixture (50 mM G6P, 10 mM NADP+, 10 UN/ml G6PDH) to provide a final volume of e.g., 10 μl to 90 μl for 100 μl total reaction volumes. After 16-20 hours, reactions were extracted with an equal volume of acetonitrile, centrifuged to remove precipitated proteins and conversion assessed by UPLC-MS analysis.
(§4) UPLC Data were Obtained as Follows: • Column: Acquity UPLC BEH Shield RP18 1.7 μm 2.1 mm i.d. 50 mm length • Solvents: H2O, B: Acetonitrile, both with 0.1% Formic acid • Flow rate: 1.0 ml/min • Detector: Waters Acquity UPLC PDA (UV-Vis detection) and Waters Acquity UPLC QDA (MS)
(§5) To confirm the identities of reaction products where known, their chromatographic retention time, mass and ultraviolet spectra were compared with those of authentic metabolite standards.
Representative results for the % conversions of ambroxide to oxidised (+16 Da) products for single point mutants at position T109 are shown in Table 2 below.

[3] = Oxidase activity testing against tofacitinib; details: substrate Tofacitinib
How it was run: as §1

[4] = Oxidase activity testing against buparvaquone; details: substrate Buparvaquone
How it was run: as §1

[5] = Oxidase activity testing against tolbutamide; details: for Average % conversion: substrate Tolbutamide
How it was run: as §1

[6] = Oxidase activity testing against ruxolitinib; details: substrate Ruxolitinib
How it was run: as §1

[7] = Oxidase activity testing against celecoxib; details: substrate Celecoxib
How it was run: as §1

[8] = Oxidase activity testing against BIRB796; details: substrate BIRB796
How it was run: as §1

[9] = Oxidase activity testing against perindopril; details: substrate Perindopril
How it was run: as §1

[10] = Oxidase activity testing against ebastine; details: substrate Ebastine
How it was run: as §1

[11] = Oxidase activity testing against vanoxerine; details: substrate Vanoxerine
How it was run: as §1

[12] = Oxidase activity testing against 7-ethoxycoumarin; details: substrate 7-ethoxycoumarin
How it was run: as §1

[13] = Oxidase activity testing against sclareol; details: substrate Sclareol, UPLC-MS UV or MS peak areas
How it was run: as §1

[14] = Oxidase activity testing against clarithromycin; details: substrate Clarithromycin
How it was run: as §1

[15] = Oxidase activity testing against valsartan; details: substrate Valsartan
How it was run: as §1

[16] = Oxidase activity testing against solifenacin; details: substrate Solifenacin
How it was run: as §1

[17] = Oxidase activity testing against propanalol; details: substrate Propanalol
How it was run: as §1

[18] = Oxidase activity testing against carbamazepine
Protocol: as §2, §3, §4, §5
Representative results for the % conversions of carbamazepine to oxidised (+16 Da) products for single point mutants at position L198 are shown in Table 3 below.

B1: SeuC10M25: P450SeuC10 with T109F mutation, SEQ ID NO: 54 (protein)
chain: MKIGTTHLTRLRGLSMTELTDITGPAAQAETVAFPQDRTCPYHPPTGYDPLRDGRPLSRVTLYDGREVWLVTAQATARALLADPRLSTDRRRDGFPVPTPRFAAGRDRFLALLGLDDPEHHRQRRLLIPSFTLKRATAQRPWIQRIVDELLDAMIARGPVADLVSAFALPVPSMVICELLGVPYADHEFFEEQSRRLLRGPTGADTTDARDRLEAYLGDLIDAKAKEAEPGDGILDDLVHNRLRAGELDRSVLVSLAVILLVAGHETTANMISLGTYTLLQHPERLAELRADPSLLPAVVEELLRMLSIAEGLQRLALEDIEIDGITIRAGEGVLFSTSVINRDTAVYEDPDDLDFHRADRHHVAFGFGIHQCLGQNLARAELEIALGSLFTRLPGLRLAAPAEEIPFKPGDTVQGMLELPVTW
modifications: SeuC10M25
In the case of B1, the Average % conversion ([1]; Batch 1) is reported as 1.5%, the “+16 Da (1.50 min) 253 m/z” value [2] is reported as 52.0% and the “+16 Da (1.60 min) 253 m/z” value [2] is reported as 15.2%. For the same molecule, the “+16 Da (2.04 min) 253 m/z” value [2] was 13.9%, the “reaction products from ambroxide (in words)” value [2] was “highest yields of the products at 1.61 and 2.04 minutes” and the “Ambroxide (2.22 min) 237 m/z” value [2] was 18.9%. It also gave an Average % conversion [2] of 81.1%, an Average % conversion ([3]; Batch 1) of 21.4% and an Average % conversion ([4]; Batch 1) of 19.4%. It also gave an Average % conversion ([5]; Batch 1) of 28.2%, an Average % conversion ([6]; Batch 1) of 79.8% and an Average % conversion ([7]; Batch 1) of 10.4%. The Average % conversion ([8]; Batch 1) was 13.9%, the Average % conversion ([9]; Batch 1) was 23.5% and the Average % conversion ([10]; Batch 1) was 12.7%. It also gave an Average % conversion ([11]; Batch 1) of 58%, an Average % conversion ([12]; Batch 1) of 17.5% and an Average % conversion ([13]; Batch 1) of 55.7%. For the same molecule, the Average % conversion ([14]; Batch 1) was 0%, the Average % conversion ([15]; Batch 1) was 15.5% and the Average % conversion ([16]; Batch 1) was 2.9%. It also gave an Average % conversion ([17]; Batch 1) of 0%.

B2: SeuC10: native CYP450 from Streptomyces eurythermus NRRL 2539, SEQ ID NO: 2 (protein, listed as Streptomyces eurythermus)
chain: B1 chain with F109T
For B2, the Average % conversion ([1]; Batch 1) was 0%, the Average % conversion ([1]; Batch 2) was 0% and the “+16 Da (1.50 min) 253 m/z” value [2] was 72.2%. The “+16 Da (1.60 min) 253 m/z” value [2] was 5.0%, the “+16 Da (2.04 min) 253 m/z” value [2] was 0.0% and the “reaction products from ambroxide (in words)” value [2] was “produce the product at 1.50 as the major product”. For the same molecule, the “Ambroxide (2.22 min) 237 m/z” value [2] was 22.8%, the Average % conversion [2] was 77.2% and the Average % conversion ([3]; Batch 1) was 36.7%. It also gave an Average % conversion ([3]; Batch 2) of 51.6%, an Average % conversion ([4]; Batch 1) of 23.5% and an Average % conversion ([4]; Batch 2) of 32.9%. It also gave an Average % conversion ([5]; Batch 1) of 32.2%, an Average % conversion ([5]; Batch 2) of 37.7% and an Average % conversion ([6]; Batch 1) of 80.9%. It also gave an Average % conversion ([6]; Batch 2) of 98.6%, an Average % conversion ([7]; Batch 1) of 29.4% and an Average % conversion ([7]; Batch 2) of 22.2%. For the same molecule, the Average % conversion ([8]; Batch 1) was 83.1%, the Average % conversion ([8]; Batch 2) was 78.8% and the Average % conversion ([9]; Batch 1) was 30.9%. The Average % conversion ([9]; Batch 2) was 32.7%, the Average % conversion ([10]; Batch 1) was 8.8% and the Average % conversion ([10]; Batch 2) was 4.5%. It also gave an Average % conversion ([11]; Batch 1) of 75.8%, an Average % conversion ([11]; Batch 2) of 65.8% and an Average % conversion ([12]; Batch 1) of 22.9%. The Average % conversion ([12]; Batch 2) was 23.3%, the Average % conversion ([13]; Batch 1) was 38.5% and the Average % conversion ([13]; Batch 2) was 35.5%. For the same molecule, the Average % conversion ([14]; Batch 1) was 0%, the Average % conversion ([14]; Batch 2) was 0% and the Average % conversion ([15]; Batch 1) was 20.1%. It also gave an Average % conversion ([15]; Batch 2) of 20.8%, an Average % conversion ([16]; Batch 1) of 5.3% and an Average % conversion ([16]; Batch 2) of 7.2%. The Average % conversion ([17]; Batch 1) was 0%, the Average % conversion ([17]; Batch 2) was 0% and the “+16 Da (1.18 min) 253 m/z” value ([18]; 2-hydroxycarbamazepine, relative MS peak area) was 0.0%. The “+16 Da (1.14 min) 253 m/z” value ([18]; carbamazepine epoxide, relative MS peak area) was 43.6%, the “reaction products from carbamazepine (in words)” value ([18]; new product at 1.18 minutes identified as 2-hydroxycarbamazepine, epoxide at 1.14 minutes) was “carbamazepine epoxide as the only reaction product” and the “Parent (1.31 min) 237 m/z” value ([18]; remaining carbamazepine, relative MS peak area, 0.1 mg/ml, 27° C., 16-20 hours) was 56.4%. The Average % conversion ([18]; substrate carbamazepine, relative MS peak areas) was 43.6%.

B3: SeuC10M2: P450SeuC10 with T109A mutation, SEQ ID NO: 8 (protein)
chain: B1 chain with F109A
modifications: SeuC10M2
With B3 the Average % conversion ([1]; Batch 1) was 0.9%, the “+16 Da (1.50 min) 253 m/z” value [2] was 85.1% and the “+16 Da (1.60 min) 253 m/z” value [2] was 7.0%. The “+16 Da (2.04 min) 253 m/z” value [2] was 0.0%, the “Ambroxide (2.22 min) 237 m/z” value [2] was 6.8% and the Average % conversion [2] was 93.2%. The Average % conversion ([3]; Batch 1) was 47.1%, the Average % conversion ([4]; Batch 1) was 28.7% and the “conversion of tolbutamide compared to wild-type (in words)” value [5] was “significantly increased conversion”. It also gave an Average % conversion ([5]; Batch 1) of 52.3%, an Average % conversion ([6]; Batch 1) of 92.8% and an Average % conversion ([7]; Batch 1) of 24.7%. The Average % conversion ([8]; Batch 1) was 29.5%, the Average % conversion ([9]; Batch 1) was 30.7% and the Average % conversion ([10]; Batch 1) was 6.8%. For the same molecule, the Average % conversion ([11]; Batch 1) was 87.2%, the Average % conversion ([12]; Batch 1) was 32.4% and the Average % conversion ([13]; Batch 1) was 36.5%. For the same molecule, the Average % conversion ([14]; Batch 1) was 0%, the Average % conversion ([15]; Batch 1) was 17.6% and the Average % conversion ([16]; Batch 1) was 7.2%. It also gave an Average % conversion ([17]; Batch 1) of 0%.
